Experimental data from US8147844 (Genentech, dated 2012).
Values joined by “and” are separate entries in the source; they are usually repeats but may differ in a detail not shown here. Equal values may be shown once.

T1: mpl-IgG (chimeric molecule comprising the entire extracellular domain of human mpl, amino acids 1-491, and … (human, UniProt P40238 26-491))
T1 construct: range 1-491; Expressed in 293 cells; no cleavage site is stated; Used immobilized on Ultralink or NHS-superose, captured on ELISA plates, or soluble; also called soluble mpl-IgG; soluble human mpl-IgG; not shown: Fc region of a human IgG1 molecule
T1 sequence (looked up): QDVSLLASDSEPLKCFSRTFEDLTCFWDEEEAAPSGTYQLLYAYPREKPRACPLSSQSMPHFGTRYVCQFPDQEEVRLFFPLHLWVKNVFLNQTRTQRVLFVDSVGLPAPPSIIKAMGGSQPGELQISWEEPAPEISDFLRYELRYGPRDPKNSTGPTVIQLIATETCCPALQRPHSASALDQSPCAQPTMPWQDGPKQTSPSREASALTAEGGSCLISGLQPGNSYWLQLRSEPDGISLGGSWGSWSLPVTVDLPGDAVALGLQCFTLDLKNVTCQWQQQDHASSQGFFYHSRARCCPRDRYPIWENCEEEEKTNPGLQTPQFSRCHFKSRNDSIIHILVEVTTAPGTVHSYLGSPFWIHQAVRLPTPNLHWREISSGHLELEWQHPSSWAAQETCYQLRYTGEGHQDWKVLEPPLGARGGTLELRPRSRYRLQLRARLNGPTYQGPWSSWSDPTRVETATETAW


Assays:
[1] = molecular target: T1, mpl-IgG (chimeric molecule comprising …); experiment: mpl receptor based ELISA (captured mpl-IgG)
Method: (§1) ELISA plates were coated with rabbit F(ab')_2 anti-human IgG (Fc) in pH 9.6 carbonate buffer at 4° C. overnight. Plates were blocked with 0.5% bovine serum albumin in PBS at room temperature for one hour. […] Bound TPO was detected with protein A purified, biotinylated rabbit antibodies to $TPO155$ which was produced in *E. coli* (1 hour incubation), followed by streptavidin-peroxidase (30 min. incubation) and 3,3',5,5'-tetramethyl benzidine as the substrate. The absorbance was read at 450 nm. Plates were washed between steps. For data analysis, the standard curve is fitted using a four-parameter curve fitting program by Kaleidagraph. Concentrations of the samples were calculated from the standard curve.

[2] = molecular target: T1, mpl-IgG (chimeric molecule comprising …); experiment: mpl receptor-based ELISA: mpl-IgG captured on an anti-human IgG (Fc) plate, bound TPO detected with biotinylated rabbit antibodies to TPO155
Method: as §1

| EC50 [2] | Binder | EC50 [1] |
| --- | --- | --- |
| – | TPO (1-155) with authentic N-terminus, generated by thrombin cleavage of T-H8MLF (ligand, Only very minor (<5%) internal cleavage occurred; also called cleaved variant (3)) SPAPPACDLRVLSKLLRDSHVLHSRLSQCPEVHPLPTPVLLPAVDFSLGEWKTQMEETKAQDILGAVTLLLEGVMAARGQLGPTCLSSLLGQLSGQVRLLLGALQSLLGTQLPPQGRTTAHKDPNAIFLSFQHLLRGKVRFLMLVGGSTLCVRRA | 0.002 µg/mL to 0.004 µg/mL (2×) and 0.12 nM and 0.24 nM |
| 0.0019 µg/mL and 0.12 nM | TPO (Met^-1 1-153), refolded, produced in E. coli (ligand, non-glycosylated; disulfides between cysteines 1-4 and 2-3, Encoded by plasmid pMP210-1) MSPAPPACDLRVLSKLLRDSHVLHSRLSQCPEVHPLPTPVLLPAVDFSLGEWKTQMEETKAQDILGAVTLLLEGVMAARGQLGPTCLSSLLGQLSGQVRLLLGALQSLLGTQLPPQGRTTAHKDPNAIFLSFQHLLRGKVRFLMLVGGSTLCVR | – |
